The values that follow come from US8986682B2, “Method to increase the absorption of unsaturated fatty acids by human infants” (Swedish Orphan Biovitrum AB (publ), priority 2010, dated 2015).

One data set relates to patients. Particulars: cited from earlier work.
Data set [1] in a line: Specific activity with PNPB substrate, sodium cholate as bile-salt activator. The format is biochemical. Particulars: 20 mM sodium cholate activation solution, 27° C., after HA-HPLC and SE-HPLC purification. How it is done: Differences in functional properties are observed between rhBSSL-CHO and BSSL-MAM and from rhBSSL-OVI. The specific activity of rhBSSL-CHO is observed to be higher than that of the other forms of BSSL. The specific activities of BSSL-MAM and rhBSSL-OVI are only 80% of that of rhBSSL-CHO based on mass. Each sample is specifically purified by HA-HPLC and SE-HPLC before determination of specific activity. Specific activity is determined using 4-nitrophenyl ester butyric acid (PNPB) as a substrate for BSSL, and detection of the release of 4-nitrophenol. Briefly, a dilution series of rhBSSL (for example, from 20 to 160 ng activity/mL) is prepared in PBS with 0.1% BSA. 200 μl of these rhBSSL solutions is added to 25 μl of an activation solution containing 20 mM sodium cholate (as bile-salt activator) in PBS with 0.1% BSA. These solutions are preincubated in a spectrophotometer at 27° C. for 5 minutes. Just before measuring, 25 μl of a well-mixed substrate solution containing 5 mM PNPB in PBS-Tween is added. The formation of 4-nitrophenol can be detected by its absorbance at 400 nm and the increase in absorbance is measured during 90 seconds. The active amount of BSSL is determined using a standard curve of an rhBSSL reference standard.

A further data set has as its system kittens. The note with it: 0.1 mg/mL in kitten-formula mixed with cow milk, 5 days; cited from earlier work.
For data set [2], the system named is CF patients (aged 12 to 39 years) with PI. Particulars: single dosing of 0.2 g or 1 g as complement to 25% of regular Creon dosing; cited from earlier work.

Where two headings read alike, the source gives them in different places.

On to “agalsidase beta: recombinant human alpha-galactosidase A produced in CHO cells”, for which the “Patients with presence of IgG” value in the data set with patients (treated patients) is reported as “almost all patients”.
On to “agalsidase alfa: recombinant human alpha-galactosidase A produced in a continuous line of human fibroblasts”, for which the “Patients with presence of IgG” value in the data set on patients (in vivo) is given as 55%.

B1: BSSL-MAM: native human milk bile-salt-stimulated lipase (protein, UniProt P19835 21-753, looked up)
Bile salt-activated lipase: AKLGAVYTEGGFVEGVNKKLGLLGDSVDIFKGIPFAAPTKALENPQPHPGWQGTLKAKNFKKRCLQATITQDSTYGDEDCLYLNIWVPQGRKQVSRDLPVMIWIYGGAFLMGSGHGANFLNNYLYDGEEIATRGNVIVVTFNYRVGPLGFLSTGDANLPGNYGLRDQHMAIAWVKRNIAAFGGDPNNITLFGESAGGASVSLQTLSPYNKGLIRRAISQSGVALSPWVIQKNPLFWAKKVAEKVGCPVGDAARMAQCLKVTDPRALTLAYKVPLAGLEYPMLHYVGFVPVIDGDFIPADPINLYANAADIDYIAGTNNMDGHIFASIDMPAINKGNKKVTEEDFYKLVSEFTITKGLRGAKTTFDVYTESWAQDPSQENKKKTVVDFETDVLFLVPTEIALAQHRANAKSAKTYAYLFSHPSRMPVYPKWVGADHADDIQYVFGKPFATPTGYRPQDRTVSKAMIAYWTNFAKTGDPNMGDSAVPTHWEPYTTENSGYLEITKKMGSSSMKRSLRTNFLRYWTLTYLALPTVTDQEATPVPPTGDSEATPVPPTGDSETAPVPPTGDSGAPPVPPTGDSGAPPVPPTGDSGAPPVPPTGDSGAPPVPPTGDSGAPPVPPTGDSGAPPVPPTGDSGAPPVPPTGDSGAPPVPPTGDAGPPPVPPTGDSGAPPVPPTGDSGAPPVTPTGDSETAPVPPTGDSGAPPVPPTGDSEAAPVPPTDDSKEAQMPAVIRF
B1: the “Specific activity relative to that of rhBSSL-CHO, based on mass” value in data set [1] came out at 80%. Besides, the “Growth rate versus kittens fed formula alone” value with kittens was “twice”.

B2: rhBSSL-OVI: recombinant human BSSL produced in / isolated from the milk of transgenic sheep (protein, UniProt P19835 21-753, looked up)
Bile salt-activated lipase: AKLGAVYTEGGFVEGVNKKLGLLGDSVDIFKGIPFAAPTKALENPQPHPGWQGTLKAKNFKKRCLQATITQDSTYGDEDCLYLNIWVPQGRKQVSRDLPVMIWIYGGAFLMGSGHGANFLNNYLYDGEEIATRGNVIVVTFNYRVGPLGFLSTGDANLPGNYGLRDQHMAIAWVKRNIAAFGGDPNNITLFGESAGGASVSLQTLSPYNKGLIRRAISQSGVALSPWVIQKNPLFWAKKVAEKVGCPVGDAARMAQCLKVTDPRALTLAYKVPLAGLEYPMLHYVGFVPVIDGDFIPADPINLYANAADIDYIAGTNNMDGHIFASIDMPAINKGNKKVTEEDFYKLVSEFTITKGLRGAKTTFDVYTESWAQDPSQENKKKTVVDFETDVLFLVPTEIALAQHRANAKSAKTYAYLFSHPSRMPVYPKWVGADHADDIQYVFGKPFATPTGYRPQDRTVSKAMIAYWTNFAKTGDPNMGDSAVPTHWEPYTTENSGYLEITKKMGSSSMKRSLRTNFLRYWTLTYLALPTVTDQEATPVPPTGDSEATPVPPTGDSETAPVPPTGDSGAPPVPPTGDSGAPPVPPTGDSGAPPVPPTGDSGAPPVPPTGDSGAPPVPPTGDSGAPPVPPTGDSGAPPVPPTGDSGAPPVPPTGDAGPPPVPPTGDSGAPPVPPTGDSGAPPVTPTGDSETAPVPPTGDSGAPPVPPTGDSEAAPVPPTDDSKEAQMPAVIRF
modifications: produced in transgenic sheep milk
On to B2, for which the “Specific activity relative to that of rhBSSL-CHO, based on mass” value in data set [1] came to 80%. In addition, the “Lipid uptake versus Creon alone” value in data set [2] is “more rapid and efficient lipid uptake”.
